This data set in a line: soluble on expression in E. coli; label from the status in PepcDB or PDB records.
“MSLRDEFSLIRSISPANVHQPSLHVGIGDDAAIYEGAPEMEEVLCVDTMVEEIHFRRDTLTPFQIGYKSLAINISDLAAMGATPKFYLVSIAVPPQWSDREIKTLYRGMAECAAPYRMDLIGGDTVSTNAKLVVTVTAVGHVPKGTRLLRQRARPGDVVFLTGTVGQSAAGLELLNKKGLHGPFTEEEELLVLAHQQPQPQVEAGHLFARSGYRIALNDVSDGVASEANELAEASKVKLVLKANTIPLHPAMETFSKEQQLEWALFGGEDFQLIGTAAVDAFASLQQLAIQRGISLTEIGYVEAGSPVVELEEGTARSVLKKSGYNHFAKEGHHHHHH”: the “soluble on expression in E. coli” value was “soluble”. As for “MSLRDLLLIDHPLCQAVFSRQGAQLLHFQPQGERPLLWCAGEWPALSSAPVRGGIPVCWPWFGSHPNGSEWPQQGWARQREWRLLDAYADESKVVVSWQLDLEDWHVRLDARLGQRLELELCSYHEEDDDCLFSFALQPYWRVGALSRVVVHGMELESARGQRGASRIPGTWIPRGAVKQVLYHPGSLVLEDGGWNRRLRIDKNVSAGSVIWHPGSRPVEQVEPGEAERFLCIGAAGYRPGGLILAPGERMRLSLAAGLQEGHHHHHH”, the entry is “not soluble”; as for “MSLREDLLEETRKSCQKKIDELEDALSELKKETSQKDHHIKQLEEDNNSNIEWYQNKIEALKKDYESVITSVDSKQTDIEKLQYKVKSLEKEIEEDKIRLHTYNVMDETINDDSLRKELEKSKINLTDAYSQIKEYKDLYETTSQSLQQTNSKLDESFKDFTNQIKNLTDEKTSLEDKISLLKEQMFNLNNELDLQKKGMEKEKADFKKRISILQNNNKEVEAVKSEYESKLSKIQNDLDQQTIYANTAQNNYEQELQKHADVSKTISELREQLHTYKGQVKTLNLSRDQLENALKENEKSWSSQKESLLEQLDLSNSRIEDLSSQNKLLYDQIQIYTAADKEVNNSTNGPGLNNILITLRRERDILDTKVTVAERDAKMLRQKISLMDVELQDARTKLDNSRVEKENHSSIIQQHDDIMEKLNQLNLLRESNITLRNELENNNNKKKELQSELDKLKQNVAPIESELTALKYSMQEKEQELKLAKEEVHRWKKRSQDILEKHEQLSSSDYEKLESEIENLKEELENKERQGAEAEEKFNRLRRQAQERLKTSKLSQDSLTEQVNSLRDAKNVLENSLSEANARIEELQNAKVAQGNNQLEAIRKLQEDAEKASRELQAKLEESTTSYESTINGLNEEITTLKEEIEKQRQIQQQLQATSANEQNDLSNIVESMKKSFEEDKIKFIKEKTQEVNEKILEAQERLNQPSNINMEEIKKKWESEHEQEVSQKIREAEEALKKRIRLPTEEKINKIIERKKEELEKEFEEKVEERIKSMEQSGEIDVVLRKQLEAKVQEKQKELENEYNKKLQEELKDVPHSSHISDDERDKLRAEIESRLREEFNNELQAIKKKSFDEGKQQAMMKTTLLERKLAKMESQLSETKQSAESPPKSVNNVQNPLLGLPRKIEENSNSPFNPLLSGEKLLKLNSKSSSGGFNPFTSPSPNKHLQNDNDKRESLANKTDPPTHLEPSFNIPASREGHHHHHH”, “soluble”. For the sequence “MSLRFDFHTHTVFSDGELIPAELVRRARVLKHRAIAITDHADFSNYKELIEKTTIAKEELKKYWDDIIVIVGVELTHIPPKSIPKMAKKAKDLGAEIVVVHGETVVEPVEEKTNYYASISEDVDILAHPGFIDKETAENLKENDIFVEITSRRGHNITNGYVANIAREFGLKTLINTDTHAPEDLIDDEFAKKVGLGAGLTNKELENTLLHYPKELLKREGHHHHHH”, the “soluble on expression in E. coli” value was “soluble”. As for “MSLRFGIGYSATMGVRPNMEDVITFQTYPNDQHLFGLFDGHQGNVAAATSAICLHNELLQNAVNAPDDQLPAAITNCYTAVNQKLKMIGTRDGCTAISAFIRKNKCYTVGIGDSRIVLVKKNSSKRLTVDYKPTMRSEYERLRKCGLTVNSEGRIGRKLAVARTLGDFWCEGPGLYVPPDVSSFEINEEEDLALIIACDGVWDVIQDDDAAEIVRNSENAQDAATTLRNVAFALGSKDNISAMIVFFDSKEGHHHHHH”, the entry is “soluble”. As for “MSLRGESSGLMAYKAEDIYFTLFNGLHGSAHGHASTGGFTLQLQGDDLFSDSGRYSYVNKSERLQLKECASHNTMFIAENPHTLVSDTWGYDKLPTPLFQQIKELSVGFFAECGWLDKADQNPMIFERSFIYLKSINSVVIIDSFAGQKETEITSTYNLAPSINCQKEAHRFALTTNKHKYTLLFAGGQTQQSVAKGSEIYNQLNEHPRLSNKFCYKTGKEIQATVISPLEDIQITPIKVSQTGENEQFCQAKGFRIIAGSEKFDLFVMREDIVKGNKLLVSEYGQFFYGRLVLIDQKEAKIRIKEGHHHHHH”, the “soluble on expression in E. coli” value is listed as “soluble”. As for “MSLRGIRLQQPAGLASLSSVALPDPGQPAAGQIRVRLHASSLNFHDLGIVSGQMPTADGRIPMSDGAGVVEAVGEAVSDFAVGDHVVSTFFPQWLDGEPLHAGFATTPGDGVDGYARSAVVAAAQAFTHAPRGYSHAEAATLTTAGVTAWRALVVNGRIKAGDTVLVLGTGGVSIFALQFAKAMGAMVIVTSSSDQKLETARTLGADHCINYRQHTEWAAQVLEITNGRGVDHVVEVGGPGTLAQSIKAARVGGHIALIGVLTGAAGPVPTAEMMGRQQRLQGLVVGSRRHQQELVRALDGLPLRPVIDRSFALEDIAEAFALQHAGGHLGKIVLEFEGHHHHHH”, the entry is “soluble”; as for “MSLRHDVILVLLDGLNHSVARDCMGHLQALCGAGRGQSYRLECELPSLSRPLYECILTGVPPIDSGILHNDVVRLSQEQSLFHYARAAGLSTAAAAYHWVSELYNRAPFDPARDRHTDDSALPIQRGHFYWSDHYPDSHLFADAESLRRRHAPNFMLVHSMNIDDAGHRHGLASPAYRNAARRADALLSEYLHQWLAAGYQVAITADHGMNEDRSHGGILEEEREVPLFVFGDAFSRDDLAQPLQTDLCGTLCEILGAAHDKPVCREEGHHHHHH”, “not soluble”; as for “MSLRILVNGLLPLDSGKTTFSLSIIRLFNQVGIRLFPFKPIAGHNAWYSFNTLIRSEELGILVGNDALKYYDETKYDIRRINPFAVLFVPIDLEKISYNVSLYNMIMEYGFPYLIRLSDCINGTDQYFVNSSADIYVPKSMLKFTRNLALKFNAKLYDKMREIIDASPQLVDNCTIDVFRNYENVIIESYNDSASPTYNSTNVDYVFTVSPTKAFLIKGQEFKKALSLFSIPPWNVRVSTLMKYLKIGKSFEIDVGERVAKDEILDILLKSEGHHHHHH”, “not soluble”. As for “MSLRITRLTVFHLDLPLAKPYWLSGGRLKFDRLDSTYLRIDTDEGVTGWGEGCPWGHSYLPAHGPGLRAGIATLAPHLLGLDPRSLDHVNRVMDLQLPGHSYVKSPIDMACWDILGQVAGLPLWQLLGGEAATPVPINSSISTGTPDQMLGLIAEAAAQGYRTHSAKIGGSDPAQDIARIEAISAGLPDGHRVTFDVNRAWTPAIAVEVLNSVRARDWIEQPCQTLDQCAHVARRVANPIMLDECLHEFSDHLAAWSRGACEGVKIKPNRVGGLTRARQIRDFGVSVGWQMHIEDVGGTALADTAALHLAASTPEANRLASWLGHAHLADDPIPGQGARNRDGLATPPSAPGLGVIPDPEALGRPVASYDEGHHHHHH”, the entry is “soluble”; as for “MSLRKFWHVGINVTDMDKSIDFYRRIGFEVVQDREVEDSNLARAFMVEGASKLRFAHLRLNDSPDEAMLDLIEWRDARSEGRAQSDLVHPGLCRFSILTDDIDAEYARLADDGVQFLHAPQTIMGPDGVKGWRLLFARDPDGTLFHFAELVGQAATEGHHHHHH”, “not soluble”; as for “MSLRKLLKKTLFSNIIILCLYLGILKCVNSHISNEIQKQNQTFDKENLESKNTQNLQKSKNPTSQLSKTILKEEFNFLPNDVEINWKGRVLVIGDIHGDLKSLITSLFLSGVINSNLDWIAKNTLLIQLGDVVDRGSHALQIYKLFNKLKSQAPSLGSKFVGLLGNHEVMNLCGQLHYVTDEDFQTYGGRDNRTFEWSKEGFVGKYLRTMKLAIRVNDSLYVHAGLLPKYAKLGLDKLDKLSNDLLEGDFCDFYSSLFFVEDGPLWTRDISLGEEEKACKLVDETLQILGLSRMVVGHTIQHDNRINIKCDNKLILADTGFSEAIYGKPCMLEILYHNDNPDPSNYKSFHPYSINELQVKSNPSKPNIKYIQVTSLFLDKTSTRDEGHHHHHH”, “soluble”.

Turning to “MSLRKVFEESKIGNIKLKNRILRSATHESMADSEGKPTEDLIKKYMELAQGEVGAIITGYTGVMQNGKSPAKNMLMLDKDENITSFKNMVNEIHKYDVPIILQIAHCGRQTSEKVTGKPTVAPSPIRDKIYRGSVPHELTDVAINEIIEAFVNAIERAIKAGFDGVELHLAHGYLLSSFLSPHMNKRKDKWGGSTENRFRIVSEIMKRARQKFKNYPILAKINGYEASKDGIKLEEAIKISKALENSGINAIEVSCGIAEEGFVTIRGKVPFDMILKCDPTMKRIPEFLKPIVKHVGKLIVKSPEPHFLYNLNNAREIKNKVTIPVIVVGGIRKFSDIEDIIAKDCDFVSMSRPFIIQPSIVKTFKEGKEKESRCINCNYCLIGVETNELKCYYGKEGHHHHHH”, the “soluble on expression in E. coli” value is reported as “soluble”. As for “MSLRKVRVGIWGFGAMGIGMANMILKKEGIEIVSVCSRSTSGKSMYDVLGIERGERPEVIINKNYEEVFREKSVDVVLLATDSFTKKAFDKIIFLLNRKINVISTAEQMAYPQADDADLAKKMDEVAKENGVSILGTGINPGFVLDLLVLALSGTCEEVTSIKAKRVNDLSPFGKSVMVEQGVGVTREEFIKGVEDKTIAGHVGFVESINMIADGLGWKLDKIEQTKEPIMTTVDRKSKYGEALAGNVAGCRQCGYGYVNGEVLIEMEHPQQIIPEAEGIKTGDYVSIKGIPNIDLQINPEIPGGVGTYAMIVNSIPLIINARPGLKTMLDIPVPRAIMGDIRNQIEVELEEEGHHHHHH”, the entry is “soluble”. Regarding “MSLRLFGTHIQAAIRPVIWLLLWQASSGFANQVRVEVEGDYDQLQENAEILLGEVQDRTADGLRRYASSAAAQVEEAVRALGYYNPTIRWQVNEQDEAPAELVLTIVPGEPVRVRSRQVDIQGPGADDPDLVQSLPERPREGDILNHGEYDGLRQAIQNRAGRLGYFDGEYETRKLKVDPDANAADILLTYRTGERYQLGEVTFLEGHGFDEQLLRQFVTTEPGEPFHADKVARLNRDLSNSGYFSGVDIDASPSQAEDRVIPVTIGLTPRPPRSVSAGVGFSTDVGPRFRGNWREHYINSMGHKRGADTELSELRQSVSGWYELPLDPPMTDSIRLGTGYQREHVEDVESERLTFGQQWNHQLDDGWMQVLSMRWEGERFRIGDGERGTSSLLLPGVSYSKLQADSPLDPSRGFRLQLDVTGAHRAVLSDADILHVNLLAKGLYTLADNHRFLARFNFGGVATNNFSDVPPSLRFFAGGDQSVRGYGYETLSPEDSDGVAVGGRYLIVGSAEYQYEFARNWRVAAFVDEGNAVNDVFDPLATGVGVGIRWVSPVGPLRLDVARGLNEELGGGWRIHFSMGPEEGHHHHHH”, the “soluble on expression in E. coli” value was “not soluble”.

For “MSLRPYQEKARLFLNGEMSATLFVELGIATSCRKGLKKGFFNQDDFFAYQCDEWGLYGVFDGHGPGGHLVANFVQWHLPNIIHEYMITSEPRVALHRAFVEVNSMLTDASEAQKFDSASSGSTASVVLHRRQERKLFLAHVGDSRVVLARRNHQGRLVADCVTKDHKPDDPVERARIERHGGEVRRPTGHIPHRVFLKGKNYPGLAMSRSIGDSMGHCAGVTSEPDISDIDLLEDRDEVVIMCTDGVWEFMTPDEVVDIVSRYSIYQADEAAQELSREAWKRWLEQDGHSVDDITVQIIHLFPPAEEKHPEGHHHHHH”, the “soluble on expression in E. coli” value was “soluble”. As for “MSLRRGIYHIENAGVPSAIDLKDGSSSDGTPIVGWQFTPDTINWHQLWLAEPIPNVADTFTLCNLFSGTYMDLYNGSSEAGTAVNGWQGTAFTTNPHQLWTIKKSSDGTSYKIQNYGSKTFVDLVNGDSSDGAKIAGWTGTWDEGNPHQKWYFNRMSVSSAEAQAAIARNPHIHGTYRGYILDGEYLVLPNATFTQIWKDSGLPGSKWREQIYDCDDFAIAMKAAVGKWGADSWKANGFAIFCGVMLGVNKAGDAAHAYNFTLTKDHADIVFFEPQNGGYLNDIGYDSYMAFY”, the entry is “soluble”.
